The results in this text go back to PMC3012696, “Crystal Structure of UBA2^ufd-Ubc9: Insights into E1-E2 Interactions in Sumo Pathways” (PLoS ONE, 2010).

This assay concerns the target T1, Ubc9 (Sumo E2 conjugating enzyme), S. cerevisiae (S. cerevisiae, UniProt P50623 1-157).
T1 construct: Ubc9, S. cerevisiae; also called yeast Ubc9; source: cation exchange for crystallography; not shown: GST, N-terminal, cleaved
T1 sequence: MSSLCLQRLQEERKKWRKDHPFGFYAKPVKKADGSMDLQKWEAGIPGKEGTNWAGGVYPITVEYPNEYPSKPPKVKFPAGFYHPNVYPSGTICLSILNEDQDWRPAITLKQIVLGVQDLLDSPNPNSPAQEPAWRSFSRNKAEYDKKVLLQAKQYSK
Put plainly: crystal structure; 1.1:1 volume:volume mixture of Uba2^ufd at 22 mg/ml and Ubc9 at 27 mg/ml; crystals at 4°C; 20% (w/v) PEG3350, 0.1 M Bis-Tris pH 5.5, 0.2 M Li2SO4; 2.3 Å; two complexes per asymmetric unit. To be noted: both partners purified.

B1: Uba2 ubiquitin-fold domain (Uba2^ufd), residues 439-563, S. cerevisiae (domain or fragment, UniProt P52488 439-563, looked up)
chain: SKVCRGVIKLSSDCLNKMKLSDFVVLIREKYSYPQDISLLDASNQRLLFDYDFEDLNDRTLSEINLGNGSIILFSDEEGDTMIRKAIELFLDVDDELPCNTCSLPDVEVPLIKANNSPSKNEEEE
notes: Uba2 (Sumo E1 subunit), S. cerevisiae, C-terminal ubiquitin-fold domain, residues 439-563; Expressed from pGEX-4T1; also called yeast Uba2^ufd; not shown: GST, N-terminal, cleaved
B1: the binding result is recorded as “binds”.
